The chains are these.
B1: M4 (HC-K12E / LC-wt) (antibody, human IgG1, kappa)
heavy: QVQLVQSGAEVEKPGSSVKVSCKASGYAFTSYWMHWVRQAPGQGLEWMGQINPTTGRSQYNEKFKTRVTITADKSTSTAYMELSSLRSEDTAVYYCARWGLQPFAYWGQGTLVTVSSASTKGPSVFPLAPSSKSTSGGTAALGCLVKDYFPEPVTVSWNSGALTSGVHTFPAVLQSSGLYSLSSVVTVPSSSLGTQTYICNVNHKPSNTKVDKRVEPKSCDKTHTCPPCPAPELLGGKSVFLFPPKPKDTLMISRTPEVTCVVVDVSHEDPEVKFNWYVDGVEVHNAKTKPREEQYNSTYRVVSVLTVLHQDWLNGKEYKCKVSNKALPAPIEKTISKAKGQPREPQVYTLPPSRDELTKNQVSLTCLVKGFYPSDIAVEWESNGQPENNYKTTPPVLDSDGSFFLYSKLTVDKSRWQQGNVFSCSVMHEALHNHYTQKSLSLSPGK
light: DIQMTQSPSFLSASVGDRVTITCKASQDVSTAVAWYQQKPGKAPKLLIYSASYRYTGVPSRFSGSGSGTDFTLTISSLQPEDFATYYCQQHYSTPWTFGGGTKVEIKRTVAAPSVFIFPPSDEQLKSGTASVVCLLNNFYPREAKVQWKVDNALQSGNSQESVTEQDSKDSTYSLSSTLTLSKADYEKHKVYACEVTHQGLSSPVTKSFNRGEC
notes: IgG1-P238K; two production batches; also called HC4/LC1; M4-b
B2: M91 (HC-R57E / LC-K107Q,R108Q) (antibody, human IgG1, kappa)
heavy: not shown
light: B1 light with K107Q, R108Q
notes: IgG1-P238K; also called HC11/LC6
B3: M92 (HC-R57E,K74Q / LC-K107Q,R108Q) (antibody, human IgG1, kappa)
heavy: not shown
light: B1 light with K107Q, R108Q
notes: IgG1-P238K; also called HC12/LC6
B4: M96 (HC-K63Q / LC-K107Q,R108Q) (antibody, human IgG1, kappa)
heavy: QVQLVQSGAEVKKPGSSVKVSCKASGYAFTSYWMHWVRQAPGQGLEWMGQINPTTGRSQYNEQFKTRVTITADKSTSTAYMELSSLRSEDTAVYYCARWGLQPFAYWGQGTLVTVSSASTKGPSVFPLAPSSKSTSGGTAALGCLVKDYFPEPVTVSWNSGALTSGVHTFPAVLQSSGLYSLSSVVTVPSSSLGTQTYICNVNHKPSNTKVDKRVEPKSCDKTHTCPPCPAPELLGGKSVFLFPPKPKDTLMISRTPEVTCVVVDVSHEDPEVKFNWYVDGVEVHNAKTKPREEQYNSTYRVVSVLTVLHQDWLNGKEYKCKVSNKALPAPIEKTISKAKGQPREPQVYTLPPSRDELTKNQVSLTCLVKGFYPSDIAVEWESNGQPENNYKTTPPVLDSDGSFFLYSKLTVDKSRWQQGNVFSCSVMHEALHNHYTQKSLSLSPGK
light: B1 light with K107Q, R108Q
notes: IgG1-P238K; also called HC16/LC6
B5: M95 (HC-R67Q / LC-K107Q,R108Q) (antibody, human IgG1, kappa)
heavy: not shown
light: B1 light with K107Q, R108Q
notes: IgG1-P238K; also called HC15/LC6
B6: M37 (HC-K12E,K13Q,K23E / LC-K45E) (antibody, human IgG1, kappa)
heavy: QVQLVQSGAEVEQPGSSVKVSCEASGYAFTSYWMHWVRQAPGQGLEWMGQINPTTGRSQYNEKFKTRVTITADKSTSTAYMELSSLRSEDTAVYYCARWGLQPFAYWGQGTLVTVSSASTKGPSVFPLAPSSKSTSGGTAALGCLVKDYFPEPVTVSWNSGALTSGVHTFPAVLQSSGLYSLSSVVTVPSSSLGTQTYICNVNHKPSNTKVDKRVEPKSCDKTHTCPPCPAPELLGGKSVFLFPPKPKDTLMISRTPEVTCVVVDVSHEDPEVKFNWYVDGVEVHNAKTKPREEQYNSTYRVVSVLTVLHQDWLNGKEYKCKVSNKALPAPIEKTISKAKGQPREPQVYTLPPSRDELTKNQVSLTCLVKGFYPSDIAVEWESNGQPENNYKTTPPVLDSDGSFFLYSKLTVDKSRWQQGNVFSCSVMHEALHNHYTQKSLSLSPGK
light: B1 light with K45E
notes: IgG1-P238K; also called HC5/LC3
B7: M47 (HC-R67Q / LC-K45E) (antibody, human IgG1, kappa, V domains shown)
VH: QVQLVQSGAEVKKPGSSVKVSCKASGYAFTSYWMHWVRQAPGQGLEWMGQINPTTGRSQYNEKFKTQVTITADKSTSTAYMELSSLRSEDTAVYYCARWGLQPFAYWGQGTLVTVSS
VL: DIQMTQSPSFLSASVGDRVTITCKASQDVSTAVAWYQQKPGKAPELLIYSASYRYTGVPSRFSGSGSGTDFTLTISSLQPEDFATYYCQQHYSTPWTFGGGTKVEIKR
notes: IgG1-P238K; also called HC15/LC3
B8: M53 (HC-K12E,K13Q,K23E / LC-K45Q,R54Q,R61Q) (antibody, human IgG1, kappa)
heavy: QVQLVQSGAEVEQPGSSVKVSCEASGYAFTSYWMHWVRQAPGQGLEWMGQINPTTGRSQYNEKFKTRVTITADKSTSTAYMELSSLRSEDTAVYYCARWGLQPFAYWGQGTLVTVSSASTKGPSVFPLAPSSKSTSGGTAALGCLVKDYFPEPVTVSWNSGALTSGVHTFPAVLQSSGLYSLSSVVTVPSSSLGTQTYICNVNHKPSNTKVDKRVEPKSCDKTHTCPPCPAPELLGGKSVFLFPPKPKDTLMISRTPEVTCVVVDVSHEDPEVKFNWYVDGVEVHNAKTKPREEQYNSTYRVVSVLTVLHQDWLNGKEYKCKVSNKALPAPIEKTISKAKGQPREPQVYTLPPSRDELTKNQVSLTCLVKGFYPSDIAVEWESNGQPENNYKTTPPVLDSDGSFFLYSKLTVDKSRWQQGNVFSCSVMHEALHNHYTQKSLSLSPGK
light: B1 light with K45Q, R54Q, R61Q
notes: IgG1-P238K; also called HC5/LC4
B9: M54 (HC-K12V,K19S,K23A / LC-K45Q,R54Q,R61Q) (antibody, human IgG1, kappa, V domains shown)
VH: B7 VH with K12V, K19S, K23A, Q67R
VL: B7 VL with E45Q, R54Q, R61Q
notes: IgG1-P238K; also called HC6/LC4
B10: M33 (HC-wt / LC-K45E) (antibody, human IgG1, kappa)
heavy: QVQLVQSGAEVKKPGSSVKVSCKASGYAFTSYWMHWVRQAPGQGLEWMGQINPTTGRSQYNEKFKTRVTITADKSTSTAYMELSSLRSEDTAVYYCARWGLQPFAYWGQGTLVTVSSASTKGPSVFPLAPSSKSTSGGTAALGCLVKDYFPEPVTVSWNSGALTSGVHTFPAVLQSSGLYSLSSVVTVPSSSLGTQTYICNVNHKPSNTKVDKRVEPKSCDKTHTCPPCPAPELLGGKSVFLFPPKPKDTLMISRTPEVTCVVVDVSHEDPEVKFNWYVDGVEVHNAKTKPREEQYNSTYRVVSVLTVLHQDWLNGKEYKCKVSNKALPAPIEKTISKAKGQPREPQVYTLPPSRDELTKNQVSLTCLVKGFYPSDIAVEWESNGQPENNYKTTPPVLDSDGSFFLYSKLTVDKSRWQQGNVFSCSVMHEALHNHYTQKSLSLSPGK
light: B1 light with K45E
notes: IgG1-P238K; also called HC1/LC3
B11: M88 (HC-R38Q,K63Q,R67Q / LC-K107Q,R108Q) (antibody, human IgG1, kappa)
heavy: not shown
light: B1 light with K107Q, R108Q
notes: IgG1-P238K; also called HC8/LC6
B12: M36 (HC-K12E / LC-K45E) (antibody, human IgG1, kappa)
heavy: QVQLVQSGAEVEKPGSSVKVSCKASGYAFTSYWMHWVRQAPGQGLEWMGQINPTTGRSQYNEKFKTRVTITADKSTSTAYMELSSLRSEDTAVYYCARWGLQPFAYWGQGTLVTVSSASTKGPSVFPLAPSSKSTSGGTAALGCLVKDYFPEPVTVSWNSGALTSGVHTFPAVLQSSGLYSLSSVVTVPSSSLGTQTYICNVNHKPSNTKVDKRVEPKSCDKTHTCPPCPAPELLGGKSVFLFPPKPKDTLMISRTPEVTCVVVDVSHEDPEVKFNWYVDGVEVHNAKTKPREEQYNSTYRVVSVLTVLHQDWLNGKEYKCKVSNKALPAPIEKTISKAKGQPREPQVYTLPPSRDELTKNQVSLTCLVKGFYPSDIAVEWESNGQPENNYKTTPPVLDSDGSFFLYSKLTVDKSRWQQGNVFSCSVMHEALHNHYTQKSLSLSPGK
light: B1 light with K45E
notes: IgG1-P238K; also called HC4/LC3
B13: M87 (HC-K23E / LC-K107Q,R108Q) (antibody, human IgG1, kappa)
heavy: not shown
light: B1 light with K107Q, R108Q
notes: IgG1-P238K; also called HC7/LC6
B14: M49 (HC-wt / LC-K45Q,R54Q,R61Q) (antibody, human IgG1, kappa)
heavy: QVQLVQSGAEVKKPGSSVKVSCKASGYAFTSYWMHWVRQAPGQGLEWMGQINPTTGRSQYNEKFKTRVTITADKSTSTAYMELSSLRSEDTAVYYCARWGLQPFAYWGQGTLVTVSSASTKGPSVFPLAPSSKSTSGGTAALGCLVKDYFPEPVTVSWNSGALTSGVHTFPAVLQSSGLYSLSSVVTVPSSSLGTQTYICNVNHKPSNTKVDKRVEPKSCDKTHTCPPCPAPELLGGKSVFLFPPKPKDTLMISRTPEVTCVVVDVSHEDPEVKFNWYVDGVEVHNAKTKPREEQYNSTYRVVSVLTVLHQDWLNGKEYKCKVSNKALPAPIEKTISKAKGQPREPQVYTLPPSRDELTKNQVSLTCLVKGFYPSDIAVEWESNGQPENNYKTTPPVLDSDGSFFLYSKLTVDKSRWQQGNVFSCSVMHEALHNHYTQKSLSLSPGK
light: B1 light with K45Q, R54Q, R61Q
notes: IgG1-P238K; also called HC1/LC4
B15: M90 (HC-R67E / LC-K107Q,R108Q) (antibody, human IgG1, kappa)
heavy: not shown
light: B1 light with K107Q, R108Q
notes: IgG1-P238K; also called HC10/LC6
B16: M93 (HC-E46K,E62K / LC-K107Q,R108Q) (antibody, human IgG1, kappa)
heavy: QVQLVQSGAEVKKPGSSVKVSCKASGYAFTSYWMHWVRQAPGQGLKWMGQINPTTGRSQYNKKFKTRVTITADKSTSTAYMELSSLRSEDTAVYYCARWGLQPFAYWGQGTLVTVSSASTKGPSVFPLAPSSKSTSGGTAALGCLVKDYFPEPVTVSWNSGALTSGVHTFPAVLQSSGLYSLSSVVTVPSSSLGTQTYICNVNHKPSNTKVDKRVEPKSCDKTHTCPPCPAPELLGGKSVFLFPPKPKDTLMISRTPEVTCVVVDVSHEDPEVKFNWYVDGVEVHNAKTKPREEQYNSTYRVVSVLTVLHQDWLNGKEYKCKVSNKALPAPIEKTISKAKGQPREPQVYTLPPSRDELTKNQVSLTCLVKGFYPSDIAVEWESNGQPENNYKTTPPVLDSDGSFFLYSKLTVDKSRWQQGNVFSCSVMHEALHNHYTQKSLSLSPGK
light: B1 light with K107Q, R108Q
notes: IgG1-P238K; also called HC13/LC6
B17: M10 (HC-R67E / LC-wt) (antibody, human IgG1, kappa)
heavy: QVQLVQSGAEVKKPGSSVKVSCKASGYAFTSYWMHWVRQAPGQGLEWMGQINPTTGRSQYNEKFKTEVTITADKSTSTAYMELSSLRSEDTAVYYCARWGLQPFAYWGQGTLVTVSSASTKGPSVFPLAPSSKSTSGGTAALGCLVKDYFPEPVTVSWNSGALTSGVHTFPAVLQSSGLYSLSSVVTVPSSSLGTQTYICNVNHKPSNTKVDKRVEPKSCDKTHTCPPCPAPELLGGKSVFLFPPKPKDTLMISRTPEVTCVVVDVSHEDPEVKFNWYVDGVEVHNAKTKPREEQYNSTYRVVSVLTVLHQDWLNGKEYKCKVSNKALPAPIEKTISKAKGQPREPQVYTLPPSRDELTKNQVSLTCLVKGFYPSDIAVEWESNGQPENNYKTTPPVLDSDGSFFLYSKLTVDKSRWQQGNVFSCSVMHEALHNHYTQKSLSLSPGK
light: B1 light
notes: IgG1-P238K; also called HC10/LC1
B18: M38 (HC-K12V,K19S,K23A / LC-K45E) (antibody, human IgG1, kappa, V domains shown)
VH: B7 VH with K12V, K19S, K23A, Q67R
VL: B7 VL
notes: IgG1-P238K; also called HC6/LC3
B19: M89 (HC-K63Q,R67E / LC-K107Q,R108Q) (antibody, human IgG1, kappa)
heavy: not shown
light: B1 light with K107Q, R108Q
notes: IgG1-P238K; also called HC9/LC6
B20: M94 (HC-K74T / LC-K107Q,R108Q) (antibody, human IgG1, kappa)
heavy: not shown
light: B1 light with K107Q, R108Q
notes: IgG1-P238K; also called HC14/LC6
B21: M13 (HC-E46K,E62K / LC-wt) (antibody, human IgG1, kappa)
heavy: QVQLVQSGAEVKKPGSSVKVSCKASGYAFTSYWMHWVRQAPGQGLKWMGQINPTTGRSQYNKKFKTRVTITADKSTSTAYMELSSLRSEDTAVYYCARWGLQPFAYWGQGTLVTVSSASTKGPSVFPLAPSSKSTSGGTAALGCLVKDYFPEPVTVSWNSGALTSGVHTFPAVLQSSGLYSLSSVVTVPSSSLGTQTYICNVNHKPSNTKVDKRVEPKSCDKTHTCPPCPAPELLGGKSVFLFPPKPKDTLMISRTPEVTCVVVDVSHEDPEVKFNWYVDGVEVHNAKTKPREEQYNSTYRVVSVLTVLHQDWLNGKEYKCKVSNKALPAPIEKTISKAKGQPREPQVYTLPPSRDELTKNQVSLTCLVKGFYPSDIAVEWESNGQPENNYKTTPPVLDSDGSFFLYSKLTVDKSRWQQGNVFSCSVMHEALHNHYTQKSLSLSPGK
light: B1 light
notes: IgG1-P238K; proof of concept control with more positive charge; also called HC13/LC1

Numbering of substitutions follows the chain as printed. Names and notes keep the numbering of the source.

The first test deals with T1, soluble human CD40 extracellular domain (human, UniProt P25942 21-193).
T1 construct: Produced in house; also called hCD40; soluble hCD40 extracellular domain
T1 sequence (P25942 21-193 limits assumed): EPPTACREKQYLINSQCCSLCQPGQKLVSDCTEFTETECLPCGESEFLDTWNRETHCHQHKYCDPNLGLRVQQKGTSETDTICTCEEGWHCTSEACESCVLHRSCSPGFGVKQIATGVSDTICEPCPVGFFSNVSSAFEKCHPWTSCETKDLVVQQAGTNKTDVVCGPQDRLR
Kind of test: SPR, Ab captured from supernatant on protein A, hCD40 ECD analyte. The method, boiled down: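 Biacore T200, 25 °C, PBS-T pH 7.2; antibodies (3 μg/ml, supernatants titre-normalised) captured on protein A chip 30 s. Human CD40 ECD analyte (5 and 50 nM, or 50 and 500 nM), 180 s association and 180 s dissociation at 30 μl/min; 1:1 Langmuir fit.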
For orientation: SPR reads the build-up and loss of mass on a sensor chip optically.
For B1, binding was characterised by a dissociation constant (Kd) of 3.6 nM.

Consider B2, for which the Kd is 9.6 nM.

The molecule B3 came in with a Kd of 13.4 nM.

B4 came in with a Kd of 3.9 nM.

B5 came in with a Kd of 3.4 nM.

B6 yielded a Kd of 4.1 nM.

Molecule B7 registered a Kd of 3.2 nM.

As for B8, binding was put at a Kd of 3.2 nM.

B9 came in with a Kd of 3 nM.

For the molecule B10, the Kd was determined as 4 nM.

On to B11, for which binding was put at a Kd of 3.2 nM.

B12 returned a Kd of 3.4 nM.

B13 yielded a Kd of 4.3 nM.

The molecule B14 registered a Kd of 3 nM.

As for B15, binding was characterised by a dissociation constant (Kd) of 3 nM.

B16: the Kd turned out to be 8.1 nM.

With B17, the Kd came to 3 nM.

Molecule B18 gave a dissociation constant (Kd) of 3.9 nM.

With B19, binding was put at a Kd of 3.3 nM.

B20 yielded a Kd of 3.6 nM.

As to B21, the affinity, expressed as Kd, was 8 nM.

The next test deals with human CD40 on primary human tonsillar B cells (human, UniProt P25942 21-277). As to the kind of experiment: cell-based or functional assay.
human CD40 on primary human tonsillar B cells, sequence (P25942 21-277 limits assumed): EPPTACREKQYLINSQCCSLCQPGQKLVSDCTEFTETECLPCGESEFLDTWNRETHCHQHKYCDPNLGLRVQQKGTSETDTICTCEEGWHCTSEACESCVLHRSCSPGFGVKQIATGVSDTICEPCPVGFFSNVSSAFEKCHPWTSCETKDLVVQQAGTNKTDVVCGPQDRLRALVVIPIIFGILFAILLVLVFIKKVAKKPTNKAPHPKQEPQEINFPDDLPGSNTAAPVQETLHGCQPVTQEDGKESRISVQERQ
In the case of B1, the “IC50, inhibition of tonsillar human B cell proliferation stimulated by IZ-hCD40L trimer (M4 lot 1)” value was found to be 0.0029 mg/L; the “IC50, inhibition of tonsillar human B cell proliferation stimulated by IZ-hCD40L trimer (M4 lot 2)” value worked out at 0.0008 mg/L; the “IC50, inhibition of tonsillar human B cell proliferation stimulated by hCD40L expressing CHO cells (M4 lot 1)” value was 0.0237 mg/L; the “IC50, inhibition of tonsillar human B cell proliferation stimulated by hCD40L expressing CHO cells (M4 lot 2)” value was 0.0396 mg/L.

Regarding B6, the “IC50, inhibition of tonsillar human B cell proliferation stimulated by IZ-hCD40L trimer” value amounted to 0.0009 mg/L and the “IC50, inhibition of tonsillar human B cell proliferation stimulated by hCD40L expressing CHO cells” value was 0.129 mg/L.

In the case of B7, the “IC50, inhibition of tonsillar human B cell proliferation stimulated by IZ-hCD40L trimer” value amounted to 0.0004 mg/L and the “IC50, inhibition of tonsillar human B cell proliferation stimulated by hCD40L expressing CHO cells” value turned out to be 0.0547 mg/L.

Turning to B8, the “IC50, inhibition of tonsillar human B cell proliferation stimulated by IZ-hCD40L trimer” value is 0.0034 mg/L and the “IC50, inhibition of tonsillar human B cell proliferation stimulated by hCD40L expressing CHO cells” value stood at 0.367 mg/L.

Consider B9, for which the “IC50, inhibition of tonsillar human B cell proliferation stimulated by IZ-hCD40L trimer” value amounted to 0.0033 mg/L and the “IC50, inhibition of tonsillar human B cell proliferation stimulated by hCD40L expressing CHO cells” value was 0.201 mg/L.

Take B10: the “IC50, inhibition of tonsillar human B cell proliferation stimulated by IZ-hCD40L trimer” value is 0.0009 mg/L and the “IC50, inhibition of tonsillar human B cell proliferation stimulated by hCD40L expressing CHO cells” value was found to be 0.0575 mg/L.

Take B12: the “IC50, inhibition of tonsillar human B cell proliferation stimulated by IZ-hCD40L trimer” value worked out at 0.0026 mg/L and the “IC50, inhibition of tonsillar human B cell proliferation stimulated by hCD40L expressing CHO cells” value is 0.0477 mg/L.

Consider B14, for which the “IC50, inhibition of tonsillar human B cell proliferation stimulated by IZ-hCD40L trimer” value came out at 0.0007 mg/L and the “IC50, inhibition of tonsillar human B cell proliferation stimulated by hCD40L expressing CHO cells” value stood at 0.0672 mg/L.

Take B17: the “IC50, inhibition of tonsillar human B cell proliferation stimulated by IZ-hCD40L trimer” value is 0.0277 mg/L and the “IC50, inhibition of tonsillar human B cell proliferation stimulated by hCD40L expressing CHO cells” value is 0.353 mg/L.

As for B18, the “IC50, inhibition of tonsillar human B cell proliferation stimulated by IZ-hCD40L trimer” value stood at 0.0072 mg/L and the “IC50, inhibition of tonsillar human B cell proliferation stimulated by hCD40L expressing CHO cells” value was determined as 0.181 mg/L.

On to B21, for which the “IC50, inhibition of tonsillar human B cell proliferation stimulated by IZ-hCD40L trimer” value is 0.0033 mg/L and the “IC50, inhibition of tonsillar human B cell proliferation stimulated by hCD40L expressing CHO cells” value amounted to 0.0208 mg/L.

The target of another test is T1, soluble human CD40 extracellular domain. As to the kind of experiment: SPR, purified Ab on protein A, 6 concentrations of hCD40 ECD. The method, then: Additionally, to more accurately define the dissociation rate (kd), a longer dissociation time of 360 seconds (s) was used as opposed to the shorter 180 s dissociation that had been used in the supernatant screening experiment.
CD40 binding SPR: SPR studies of the purified antibodies were conducted on BIAcore™ T200 instrument (GE Healthcare, Chicago Ill.). A Series S Protein A sensor chip (GE Healthcare, Chicago Ill.) was equilibrated with SPR running buffer of 10 mM NaPO₄, 130 mM NaCl, 0.05% tween 20, (PBS-T) pH 7.2 at 25° C. The purified antibody samples were diluted to 3 μg/ml in PBS-T and captured on the protein A surface for 30 s at 10 μl/min Binding of 3.91, 7.81, 15.6, 31.3, 62.5, and 125 nM human CD40 extracellular domain (produced in house) was evaluated using association time of 180 s at 30 μl/min, followed by a dissociation time of 360 s at 30 μl/min Regeneration between cycles was accomplished using two 15 s injections of 10 mM glycine pH 1.5. […] Data were analyzed using BIAcore™ T200 evaluation software by fitting to a 1:1 Langmuir model.
Turning to B1, the Kd amounted to 2.8 nM, the koff was found to be 0.00069 s⁻¹ and the kon is 250000 M⁻¹ s⁻¹.

B6 came in with a Kd of 3.3 nM, a koff of 0.00084 s⁻¹ and a kon of 250000 M⁻¹ s⁻¹.

Molecule B7 showed a Kd of 2.2 nM, a koff of 0.00074 s⁻¹ and a kon of 330000 M⁻¹ s⁻¹.

In turn, B8 had a dissociation constant Kd of 2.5 nM, a dissociation rate constant (koff) of 0.0008 s⁻¹ and a kon of 320000 M⁻¹ s⁻¹.

B9: binding was put at a Kd of 2.3 nM, the koff is 0.00075 s⁻¹ and the kon came out at 330000 M⁻¹ s⁻¹.

Molecule B10 came in with a Kd of 2.9 nM, a koff of 0.00073 s⁻¹ and a kon of 260000 M⁻¹ s⁻¹.

Molecule B12 returned a Kd of 2.6 nM, a koff of 0.00078 s⁻¹ and an on-rate constant (kon) of 300000 M⁻¹ s⁻¹.

In the case of B14, the Kd was determined as 2.2 nM, the koff worked out at 0.0007 s⁻¹ and the kon is 320000 M⁻¹ s⁻¹.

In turn, B17 had a Kd of 2.3 nM, a koff of 0.00067 s⁻¹ and a kon of 290000 M⁻¹ s⁻¹.

B18 registered a Kd of 2.8 nM, a dissociation rate constant (koff) of 0.00077 s⁻¹ and a kon of 280000 M⁻¹ s⁻¹.

B21 displayed a Kd of 8.4 nM, a koff of 0.00068 s⁻¹ and a kon of 81000 M⁻¹ s⁻¹.

The next test shares this target. As to the kind of experiment: SPR, antibody captured from supernatant on protein A chip, soluble hCD40 ECD at 5 and 50 nM (summary table of the 16 chosen antibodies).
As to B1, the dissociation constant Kd turned out to be 3.6 nM.

Turning to B6, the Kd is 4.1 nM.

With B7, the Kd worked out at 3.2 nM.

Regarding B8, the Kd was found to be 3.2 nM.

Take B9: the affinity, expressed as Kd, was 3 nM.

For B10, the Kd amounted to 4 nM.

In the case of B12, binding was characterised by a dissociation constant (Kd) of 3.4 nM.

B14 registered a Kd of 3 nM.

Molecule B17 registered a Kd of 3 nM.

Molecule B18 returned a Kd of 3.9 nM.

In the case of B21, the equilibrium dissociation constant (Kd) came out at 8 nM.

What is called Kd is the equilibrium constant for the complex coming apart. Lower therefore signals tighter binding. By koff is commonly meant a measure of how fast the partners let go of each other. By kon is commonly meant the second-order rate constant of association.

The record behind these values is patent publication US20230203177A1 (Bristol-Myers Squibb, published 2023).
